PMC6449355, “A TetR-family transcription factor regulates fatty acid metabolism in the archaeal model organism Sulfolobus acidocaldarius” (Nature Communications, 2019)

Tests used:
FadRSa [1] = molecular target: T1, FadRSa (Sulfolobus acidocaldarius, UniProt Q4J9S1); assay: EMSA, release of FadRSa from operator DNA; type: binding; conditions: 154-bp Saci_1106 operator probe, pH 8.0, 37 °C; allosteric inducer
T1 construct: gene Saci_1107; full-length, recombinant in E. coli Rosetta (DE3), His-tagged (N-terminal from pET45b or C-terminal from pET24a; mutants C-terminal), tag kept; homodimer, 44 kDa

FadRSa [2] = molecular target: T2, FadRSa (Sulfolobus acidocaldarius, UniProt Q4J9S1, M101A); assay: EMSA, ligand response of mutant (fraction of bound DNA); type: binding; conditions: pH 8.0, 37 °C; allosteric inducer
T2 construct: gene Saci_1107; full-length, recombinant in E. coli Rosetta (DE3), His-tagged (N-terminal from pET45b or C-terminal from pET24a; mutants C-terminal), tag kept; homodimer, 44 kDa

[3] = molecular target: T3, FadRSa (Sulfolobus acidocaldarius) (UniProt Q4J9S1); assay: EMSA; conditions: EMSA/DNase I: 20 mM Tris-HCl pH 8.0, 1 mM MgCl2, 0.1 mM DTT, 12.5% glycerol, 50 mM NaCl, 0.4 mM EDTA, 37 C; EMSA with about 0.1 nM 32P-DNA and excess …
T3 sequence: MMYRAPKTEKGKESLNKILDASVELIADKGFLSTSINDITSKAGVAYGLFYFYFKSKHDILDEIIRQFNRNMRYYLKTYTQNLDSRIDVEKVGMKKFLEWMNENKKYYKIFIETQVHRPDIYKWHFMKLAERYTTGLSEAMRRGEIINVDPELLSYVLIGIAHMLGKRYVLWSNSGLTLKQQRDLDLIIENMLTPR

[4] = molecular target: T3, FadRSa (Sulfolobus acidocaldarius); assay: DNase I footprinting; conditions: EMSA/DNase I: 20 mM Tris-HCl pH 8.0, 1 mM MgCl2, 0.1 mM DTT, 12.5% glycerol, 50 mM NaCl, 0.4 mM EDTA, 37 C; EMSA with about 0.1 nM 32P-DNA and excess …
[5] = molecular target: T3, FadRSa (Sulfolobus acidocaldarius); assay: Cu-phenanthroline footprinting; conditions: EMSA/DNase I: 20 mM Tris-HCl pH 8.0, 1 mM MgCl2, 0.1 mM DTT, 12.5% glycerol, 50 mM NaCl, 0.4 mM EDTA, 37 C; EMSA with about 0.1 nM 32P-DNA and excess …
[6] = molecular target: T3, FadRSa (Sulfolobus acidocaldarius); assay: footprinting; conditions: EMSA/DNase I: 20 mM Tris-HCl pH 8.0, 1 mM MgCl2, 0.1 mM DTT, 12.5% glycerol, 50 mM NaCl, 0.4 mM EDTA, 37 C; EMSA with about 0.1 nM 32P-DNA and excess …
FadRSa [7] = molecular target: T4, FadRSa (Sulfolobus acidocaldarius, UniProt Q4J9S1 1-196); assay: SEC; 40:1 protein:DNA; complex B2, 179 kDa, two dimers; EMSA/DNase I: 20 mM Tris-HCl pH 8.0, 1 mM MgCl2, 0.1 mM DTT, 12.5% glycerol, 50 mM NaCl, 0.4 mM EDTA, 37 C; EMSA with about 0.1 nM 32P-DNA and excess nonspecific competitor DNA; conditions: protein: recombinant; (N-terminal pET45b or C-terminal pET24a His tag); chain copies: 2; label: 32P 5' end (EMSA); none (SEC); blunt
T4 sequence: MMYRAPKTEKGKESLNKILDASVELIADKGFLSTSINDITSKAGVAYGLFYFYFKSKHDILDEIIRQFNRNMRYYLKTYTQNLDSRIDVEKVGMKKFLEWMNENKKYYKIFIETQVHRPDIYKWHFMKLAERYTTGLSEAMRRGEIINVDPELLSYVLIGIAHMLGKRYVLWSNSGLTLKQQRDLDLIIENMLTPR

FadRSa [8] = molecular target: T4, FadRSa; assay: EMSA; single complex B; EMSA/DNase I: 20 mM Tris-HCl pH 8.0, 1 mM MgCl2, 0.1 mM DTT, 12.5% glycerol, 50 mM NaCl, 0.4 mM EDTA, 37 C; EMSA with about 0.1 nM 32P-DNA and excess nonspecific competitor DNA; conditions: protein: recombinant; (N-terminal pET45b or C-terminal pET24a His tag); chain copies: 2; label: 32P 5' end (EMSA); none (SEC); blunt
FadRSa [9] = molecular target: T4, FadRSa; assay: EMSA; two complexes B1 and B2; EMSA/DNase I: 20 mM Tris-HCl pH 8.0, 1 mM MgCl2, 0.1 mM DTT, 12.5% glycerol, 50 mM NaCl, 0.4 mM EDTA, 37 C; EMSA with about 0.1 nM 32P-DNA and excess nonspecific competitor DNA; conditions: protein: recombinant; (N-terminal pET45b or C-terminal pET24a His tag); chain copies: 2; label: 32P 5' end; blunt
FadRSa [10] = molecular target: T4, FadRSa; assay: X-ray crystallography; 3.29 A; three dimers with two duplexes; EMSA/DNase I: 20 mM Tris-HCl pH 8.0, 1 mM MgCl2, 0.1 mM DTT, 12.5% glycerol, 50 mM NaCl, 0.4 mM EDTA, 37 C; EMSA with about 0.1 nM 32P-DNA and excess nonspecific competitor DNA; conditions: protein: recombinant; (N-terminal pET45b or C-terminal pET24a His tag); chain copies: 2; blunt
[11] = molecular target: the molecule itself; assay: SEC; free purified FadRSa; apparent molecular weight from a calibrated column (Superdex 200 Increase 10/30 GL, 20 mM Na2HPO4 pH 7.4, 150 mM NaCl)
[12] = molecular target: the molecule itself; assay: crystal structure; SeMet FadRSa, SAD, 2.4 Å, space group P21, two molecules per asymmetric unit; acyl-CoA in subunit B
[13] = molecular target: the molecule itself; assay: native gel or EMSA; dimer with dimer on operator DNA: 45-bp 32P-labelled wildtype or mutated Saci_1123 operator probes; 20 mM Tris-HCl pH 8.0, 1 mM MgCl2, 0.1 mM DTT, 12.5% glycerol, 50 mM NaCl, 0.4 mM EDTA, 37 °C; 6% acrylamide gels

T2 sequence (Q4J9S1 entry or part of it M101A): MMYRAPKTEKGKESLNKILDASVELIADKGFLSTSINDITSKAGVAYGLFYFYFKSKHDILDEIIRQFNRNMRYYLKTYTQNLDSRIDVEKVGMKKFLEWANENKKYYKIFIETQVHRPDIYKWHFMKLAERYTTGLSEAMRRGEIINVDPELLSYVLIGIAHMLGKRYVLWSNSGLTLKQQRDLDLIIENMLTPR

`CCCCCCCC/C=C\CCCCCCCC(=O)SCCNC(=O)CCNC(=O)[C@H](O)C(C)(C)COP(=O)(O)OP(=O)(O)OC[C@H]1O[C@@H](n2cnc3c(N)ncnc32)[C@H](O)[C@@H]1OP(=O)(O)O` [oleoyl-CoA] was tested, and the “EMSA, release of FadRSa from operator DNA” value (FadRSa [1]) was “addition of acetyl-CoA or hexanoyl-CoA does not affect sensitivity of the protein to oleoyl-CoA” and the “EMSA, ligand response of mutant (fraction of bound DNA)” value (FadRSa [2]) was “alanine mutation of the allosterically altered Met101 residue desensitizes the protein to oleoyl-CoA”.

With “CGCCCTTTAGAGTGTGGAAGAAGTCAGTGGCACAGTTCTCTTCGTTTAAGCTTTTTTGTATCTCTTCATCAAAATTAAACTATTTGTTTTATTCATTATATCTTAATGTATTTGTGTAAATAATCTTCTTTATTCTAATCAATAAAATTATCGGAGAAGTTTATTATCGAGTTTACCTTTTAACTACAATGATAGTCGACTCAAAAATCAAGTAGTAAAGGTGGTGTGATGTATAGGGCTCC (double strand) [Saci_1107 (fadRSa) peak 2 fragment]” the binding [3] was “binds”, the binding [4] was “binds” and the binding [5] was “binds”.

With “CTACTTTCTAATATCACTATATTCACGCCTGGCAGACCCGACCTACTATGTTTAAACTTTTATAAAGTTGACATTATAATCAACTGATTATTTTAAAGGCAGTTCTAATTTTTCAAATAAACATAACACTAATCCTATAGATATAACTAATAAC (double strand) [Saci_1123 peak 4 footprint fragment]” the binding [6] was “binds”.

With “CTTCACTCCAAATCCTATTAGGAAAGCTGACACTGAACCGACCTTTTAACTACAATGATAGTCGACTCAAAAATCAAGTATAATATAGTCGAAATATGCCCTCTTGAATAAAACCATGAAATATAAATGAGTCTATTCTGATCTGATAAAGTTC (double strand) [Saci_1106 peak 1 fragment]” the binding [3] was “binds” and the binding [4] was “binds”.

B1: fadRSa operator 45-bp (dsDNA)
DNA 1: ACTACAATGATAGTCGACTCAAAAATCAAGTAGTAAAGGTGGTGT
DNA 2: ACACCACCTTTACTACTTGATTTTTGAGTCGACTATCATTGTAGT
B1: binds (FadRSa [7]).

B2: Saci_1123 operator 45-bp (dsDNA)
DNA 1: ACTACATAATCAGTTGATTATAATGTCAACTTTATAAAGTGGTGT
DNA 2: ACACCACTTTATAAAGTTGACATTATAATCAACTGATTATGTAGT
B2: binds (FadRSa [8]).

B3: mutated Saci_1123 operator 45-bp (dsDNA)
DNA 1: ACTACATAGTCAGTTGATTCTAATGTCAACTTTATAAAGTGGTGT
DNA 2: ACACCACTTTATAAAGTTGACATTAGAATCAACTGACTATGTAGT
B3: binds (FadRSa [9]).

B4: fadRSa operator 21-mer (dsDNA)
DNA 1: GTCGACTCAAAAATCAAGTAG
DNA 2: CTACTTGATTTTTGAGTCGAC
B4: binds (FadRSa [10]).

B5: FadRSa (TetR-family transcriptional regulator encoded by Saci_1107), recombinant His-tagged (natural protein, Sulfolobus acidocaldarius, UniProt Q4J9S1 1-196, looked up)
chain: MMYRAPKTEKGKESLNKILDASVELIADKGFLSTSINDITSKAGVAYGLFYFYFKSKHDILDEIIRQFNRNMRYYLKTYTQNLDSRIDVEKVGMKKFLEWMNENKKYYKIFIETQVHRPDIYKWHFMKLAERYTTGLSEAMRRGEIINVDPELLSYVLIGIAHMLGKRYVLWSNSGLTLKQQRDLDLIIENMLTPR
notes: FadRSa, TetR-family regulator encoded by Saci_1107 of Sulfolobus acidocaldarius; the fadRSa coding region amplified from genomic DNA; An N-terminally His-tagged (pET45b) and a C-terminally His-tagged (pET24a) construct were both made; also called wildtype FadRSa; source: E. coli Rosetta (DE3), purified (heat treatment 80 °C, His GraviTrap IMAC)
In the case of B5, the “stoichiometry N” value [11] is reported as 2.

B6: SeMet FadRSa (selenomethionine-substituted FadRSa) (natural protein, Sulfolobus acidocaldarius, UniProt Q4J9S1 1-196, looked up)
chain: MMYRAPKTEKGKESLNKILDASVELIADKGFLSTSINDITSKAGVAYGLFYFYFKSKHDILDEIIRQFNRNMRYYLKTYTQNLDSRIDVEKVGMKKFLEWMNENKKYYKIFIETQVHRPDIYKWHFMKLAERYTTGLSEAMRRGEIINVDPELLSYVLIGIAHMLGKRYVLWSNSGLTLKQQRDLDLIIENMLTPR
modifications: selenomethionine-substituted
notes: FadRSa, TetR-family regulator encoded by Saci_1107 of Sulfolobus acidocaldarius; the fadRSa coding region in pET45b (BamHI/HindIII); One subunit (B) of the crystallised dimer carried an acyl-CoA, likely derived from E. coli; also called SeMet-substituted FadRSa; SeMet-derivated FadRSa
B6: binds [12].

B7: FadRSa N37A (natural protein, Sulfolobus acidocaldarius, UniProt Q4J9S1 1-196, looked up)
chain: MMYRAPKTEKGKESLNKILDASVELIADKGFLSTSIADITSKAGVAYGLFYFYFKSKHDILDEIIRQFNRNMRYYLKTYTQNLDSRIDVEKVGMKKFLEWMNENKKYYKIFIETQVHRPDIYKWHFMKLAERYTTGLSEAMRRGEIINVDPELLSYVLIGIAHMLGKRYVLWSNSGLTLKQQRDLDLIIENMLTPR
notes: FadRSa, encoded by Saci_1107 of Sulfolobus acidocaldarius; made by site-directed mutagenesis with pET24axfadRSaNdenull as template; also called N37A mutant FadRSa; source: E. coli Rosetta (DE3), purified (heat treatment 80 °C, His GraviTrap IMAC)
B7: binds [13].
